Patent US20160032014A1 (Amgen, published 2016)
Residue numbers refer to the chain shown, from its start.

B1: 20D12 (antibody, human IgG2, lambda, V domains shown)
VH: QVQLQQWGAGLLKPSETLSLTCAVSGGSFRAYYWNWIRQPPGKGLEWIGEINHSGRTDYNPSLKSRVTISVDTSKNQFSLKLSSVTAADTAVYYCARGQLVPFDYWGQGTLVTVSS
VL: not shown
notes: tested as hybridoma supernatant
B2: 25B5 (antibody, human IgG2, lambda, V domains shown)
VH: QIQLVQSGAEVKKPGASVKVSCKASGYTLTSYGISWVRQAPGQGLEWMGWISFYNGNTNYAQKVQGRVTMTTDTSTSTVYMELRSLRSDDTAVYFCARGYGMDVWGQGTTVTVSS
VL: QSALTQPASVSGSPGQSITISCTGTSSDVGGYNSVSWYQQHPGKPPKLMIYEVSNRPSGISNRFSGSKSGNTASLTISGLQAEDEADYFCSSYTSTSMVFGGGTKLAVLR
notes: as for B1
B3: 19A12 (antibody, human IgG2, kappa, V domains shown)
VH: QVQLVESGGGVVQPGRSLRLSCAASGFTFSSYGMHWVRQAPGKGLEWVAVIWYDGSNKYYADSVKGRFTISRDNSKNTLYLQMNSLRAEDTAVYYCVRDRGLDWGQGTLVTVSS
VL: not shown
notes: as for B1
B4: 13G9 (antibody, human IgG2, lambda, V domains shown)
VH: QVQLVQSGAEVTKPGASVKVSCKASGYTFTSYGISWVRQAPGQGLEWMGWISVYKGNTNYAQKLQGRVTMTTDTSTSTAYMELRSLRSDDTAVYYCARNYQIFSFDYWGQGTLVTVSS
VL: QSVLTQPPSVSGAPGQRVTISCTGSRSNIGAGYDVNWYQQLPGTAPKLLIYGNSNRPSGVPDRFSGSKSGTSASLVITGLQAEDEADYYCQSYDSNLSGSVFGGGTKLTVLG
notes: as for B1
B5: SS-15065 (antibody, V domains shown)
VH: EVQLVESGGGLVKPGGSLRLSCAASGFTFSSYSMNWVRQAPGKGLEWVSSISSSSSYISYADSVKGRFTISRDNAKNSLYLQMNSLRAEDTAVYFCARDYDFHSAHYDAFDVWGQGTMVTVSS
VL: B4 VL with Q1E, R26S, Y33H, N36H, Y51S, V76A, N96S
notes: 31H4 His variant: LC 39(32), HC 132(106), parental(113H)
B6: SS-15121 (antibody, V domains shown)
VH: B5 VH with S54H
VL: B4 VL with Q1E, R26S, N36H, Y51S, V76A, N96S
notes: 31H4 His variant: HC 61(54), 132(106), parental(113H); parental LC
B7: SS-15124 (antibody, V domains shown)
VH: B5 VH with S56H, Y60H, H106Y
VL: B4 VL with Q1E, R26S, N36H, Y51S, V76A, N96S
notes: 31H4 His variant: HC 66(56), 70(60), parental(113H)
B8: SS-15126 (antibody, V domains shown)
VH: B5 VH with S56H, S63H, H106Y
VL: B4 VL with Q1E, R26S, N36H, Y51S, V76A, N96S
notes: 31H4 His variant: HC 66(56), 73(63), parental(113H)
B9: SS-15114 (antibody, V domains shown)
VH: B5 VH with Y32H
VL: B4 VL with Q1E, R26S, N36H, Y51S, V76A, N96S
notes: 31H4 His variant: HC 39(32), 132(106), parental(113H)
B10: SS-15139 (antibody, V domains shown)
VH: B5 VH with D62H
VL: B4 VL with Q1E, R26S, N36H, Y51S, V76A, N96S
notes: 31H4 His variant: HC 72(62), 132(106), parental(113H)
B11: SS-15141 (antibody, V domains shown)
VH: B5 VH with S63H
VL: B4 VL with Q1E, R26S, N36H, Y51S, V76A, N96S
notes: 31H4 His variant: HC 73(63), 132(106), parental(113H)
B12: SS-15087 (antibody, V domains shown)
VH: B5 VH
VL: B4 VL with Q1E, R26S, N36H, Y51S, V76A, N96S, S98H
B13: SS-15136 (antibody, V domains shown)
VH: B5 VH with Y60H
VL: B4 VL with Q1E, R26S, N36H, Y51S, V76A, N96S
notes: 31H4 His variant: HC 70(60), 132(106), parental(113H)

Biological target: T1, human PCSK9 (self-cleaved, mature, secreted PCSK9 comprising amino acids 31 to 692 of SEQ ID NO: 2) (human, UniProt Q8NBP7 31-692, biotinylated in the ELISAs)
T1 construct: Limits 31-692 are stated for the immunogen; the assays only say human PCSK9; also called huPCSK9; rhu PCSK9
Assay: ELISA, sup 1:125, expt 1

In order of falling “OD diff (pH 7.4 - pH 6)” value:
1. B4  2.2 OD
2. B1  1.2 OD
3. B2  0.8 OD
4. B3  0.7 OD

Biological target: T1, human PCSK9 (self-cleaved, mature, …)
Assay: ELISA, sup 1:625, expt 1

In order of falling “OD diff (pH 7.4 - pH 6)” value:
1. B1  1.6 OD
2. B4  1.5 OD
3. B3  1.2 OD
4. B2  0.3 OD

Biological target: T1, human PCSK9 (self-cleaved, mature, …)
Assay: ELISA pH 7.4, sup 1:125, expt 2

In order of falling “OD 450 nm” value:
1. B4  6 OD
2. B1  4.1 OD
3. B3  3.9 OD
4. B2  2.6 OD

Biological target: T1, human PCSK9 (self-cleaved, mature, …)
Assay: ELISA, supernatant on captured biotin-PCSK9, late primary screen

In order of rising “OD 450 nm” value:
1. B4  3.6 OD
2. B3  3.8 OD
3. B1  4.2 OD
4. B2  4.3 OD

Biological target: T1, human PCSK9 (self-cleaved, mature, …)
Assay: ELISA pH 6, sup 1:125, expt 2

In order of rising “OD 450 nm” value:
1. B2  1.7 OD
2. B3  2.5 OD
3. B1  2.8 OD
4. B4  4.2 OD

Biological target: T2, human D374Y PCSK9 (human, UniProt Q8NBP7 31-692, limits assumed, biotinylated in the blocking ELISA)
T2 construct: also called D374Y PCSK9 mutant; biotinylated human D374Y PCSK9
Assay: ELISA, blocking of biotin-D374Y PCSK9 binding to LDLR, expt. #2

In order of rising “% Inhibition” value:
1. B4  77%
2. B3  91%
3. B1  92%
4. B2  93%

Biological target: T1, human PCSK9 (self-cleaved, mature, …)
Assay: ELISA pH 7.4, sup 1:125, expt 1

In order of falling “OD 450 nm” value:
1. B4  6 OD
2. B1  4.2 OD
3. B3  3.6 OD
4. B2  2.1 OD

Biological target: T1, human PCSK9 (self-cleaved, mature, …)
Assay: ELISA pH 6, sup 1:625, expt 1

In order of rising “OD 450 nm” value:
1. B2  0.5 OD
2. B1  0.9 OD
3. B3  1.9 OD
4. B4  2 OD

Biological target: T1, human PCSK9 (self-cleaved, mature, …)
Assay: ELISA, supernatant on captured biotin-PCSK9, early primary screen

In order of rising “OD 450 nm” value:
1. B3  3.7 OD
2. B4  3.8 OD
3. B1  6 OD
4. B2  6 OD

Biological target: T1, human PCSK9 (self-cleaved, mature, …)
Assay: SPR pH 7.4;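 further: antibodies captured as ligand on the sensor surface, five analyte concentrations injected with buffer blanks, double-referenced data fit to a 1:1 binding model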

In order of rising Kd:
1. B11  0.185 nM
2. B10  0.19 nM
3. B12  0.229 nM
4. B13  0.241 nM
5. B8  0.257 nM
6. B9  0.271 nM
7. B5  0.274 nM
8. B7  0.327 nM
9. B6  0.383 nM

In order of rising koff:
1. B9  0.00015 s⁻¹
2. B10  0.000248 s⁻¹
3. B11  0.000255 s⁻¹
4. B12  0.000288 s⁻¹
5. B13  0.000298 s⁻¹
6. B5  0.000337 s⁻¹
7. B8  0.000385 s⁻¹
8. B7  0.000525 s⁻¹
9. B6  0.000563 s⁻¹

In order of falling kon:
1. B7  1.6e+06 M⁻¹ s⁻¹
2. B8  1.5e+06 M⁻¹ s⁻¹
3. B6  1.47e+06 M⁻¹ s⁻¹
4. B11  1.38e+06 M⁻¹ s⁻¹
5. B10  1.31e+06 M⁻¹ s⁻¹
6. B12  1.26e+06 M⁻¹ s⁻¹
7. B5  1.23e+06 M⁻¹ s⁻¹
8. B13  1.23e+06 M⁻¹ s⁻¹
9. B9  555000 M⁻¹ s⁻¹

Biological target: T1, human PCSK9 (self-cleaved, mature, …)
Assay: ELISA, sup 1:625, expt 2

In order of rising “OD diff (pH 7.4 - pH 6)” value:
1. B4  -0.6 OD
2. B2  0 OD
3. B1  0.7 OD
4. B3  0.7 OD

Biological target: T1, human PCSK9 (self-cleaved, mature, …)
Assay: ELISA, sup 1:125, expt 2

In order of falling “OD diff (pH 7.4 - pH 6)” value:
1. B4  1.8 OD
2. B3  1.4 OD
3. B1  1.3 OD
4. B2  0.9 OD

Biological target: T1, human PCSK9 (self-cleaved, mature, …)
Assay: ELISA pH 6, sup 1:125, expt 1

In order of falling “OD 450 nm” value:
1. B4  3.8 OD
2. B1  3 OD
3. B3  2.9 OD
4. B2  1.3 OD

Biological target: T1, human PCSK9 (self-cleaved, mature, …)
Assay: ELISA pH 7.4, sup 1:625, expt 1

In order of falling “OD 450 nm” value:
1. B4  3.4 OD
2. B3  3 OD
3. B1  2.5 OD
4. B2  0.8 OD

Biological target: T1, human PCSK9 (self-cleaved, mature, …)
Assay: ELISA pH 7.4, sup 1:625, expt 2

In order of rising “OD 450 nm” value:
1. B2  0.5 OD
2. B4  1 OD
3. B1  1.5 OD
4. B3  2.5 OD

Biological target: T1, human PCSK9 (self-cleaved, mature, …)
Assay: SPR pH 5.5

In order of rising “estimated complex half life pH 5.5” value:
1. B6  20 s
2. B5  100 s
3. B7  100 s
4. B8  100 s
5. B9  100 s
6. B10  100 s
7. B11  100 s
8. B12  100 s
9. B13  100 s

Biological target: T1, human PCSK9 (self-cleaved, mature, …)
Assay: ELISA pH 6, sup 1:625, expt 2

In order of falling “OD 450 nm” value:
1. B3  1.8 OD
2. B4  1.6 OD
3. B1  0.8 OD
4. B2  0.5 OD

Biological target: T2, human D374Y PCSK9
Assay: ELISA, blocking of biotin-D374Y PCSK9 binding to LDLR, expt. #1

In order of rising “% Inhibition” value:
1. B4  62%
2. B3  89%
3. B1  91%
4. B2  94%
